Paper PMC12238454, “Soyasaponin β-glucosidase confers soybean resistance to pod borer (Leguminivora glycinivorella)” (aBIOTECH, 2025)

Key:
Assay in all cases: purified protein
Format in all cases: biochemical, Glycine max
Details in all cases: 50 mM Na2HPO4-citric acid buffer, optimal pH 5.5 and temperature 42 °C, apparent Km, substrate 1.25-80 µM
[1] = substrate: CC1(C)C[C@H]2C3=CC[C@@H]4[C@@]5(C)CC[C@H](O[C@@H]6O[C@H](C(=O)O)[C@@H](O)[C@H](O)[C@H]6O[C@@H]6O[C@H](CO)[C@H](O)[C@H](O)[C@H]6O[C@@H]6O[C@H](CO)[C@@H](O)[C@H](O)[C@H]6O)[C@](C)(CO)[C@@H]5CC[C@@]4(C)[C@]3(C)CC[C@@]2(C)[C@H](O[C@@H]2OC[C@H](O)[C@H](O)[C@H]2O)[C@@H]1O
[2] = substrate: C[C@@H]1O[C@@H](O[C@H]2[C@H](O[C@H]3[C@H](O[C@H]4CC[C@@]5(C)[C@@H](CC[C@]6(C)[C@@H]5CC=C5[C@@H]7CC(C)(C)[C@@H](O)[C@@H](O[C@@H]8OC[C@H](O)[C@H](O)[C@H]8O)[C@]7(C)CC[C@]56C)[C@@]4(C)CO)O[C@H](C(=O)O)[C@@H](O)[C@@H]3O)O[C@H](CO)[C@H](O)[C@@H]2O)[C@H](O)[C@H](O)[C@H]1O
[3] = substrate: CC1(C)C[C@H]2C3=CC[C@@H]4[C@@]5(C)CC[C@H](O[C@@H]6O[C@H](C(=O)O)[C@@H](O)[C@H](O)[C@H]6O[C@@H]6O[C@H](CO)[C@H](O)[C@H](O)[C@H]6O)[C@](C)(CO)[C@@H]5CC[C@@]4(C)[C@]3(C)CC[C@@]2(C)[C@H](O[C@@H]2OC[C@H](O)[C@H](O)[C@H]2O)[C@@H]1O

B1: GmSSBG1 (SSBG1Δ24; GmBGLU13) (Glycine max) (protein)
chain: LDLSFLPSDFLFGIASSSYQYEGAYKSDGKGLSNWDNYTHGPGRSVIMDGSNGDIAIDHYHRYLEDIDLMETLGVNSYRLSLSWARILPKGRFGEPNHAGIEFYNRLIDVLLLKGIQPFVTLSHYDIPQELEDRYGSWLSPQLQEDFAFYADLCFKTFGDRVKYWVTFNEPNFLVSLGYRSGLYPPCRCSGQLAMAKCSEGDSEKEPFVAAHNVILSHAAAVDIYRTKYQTEQKGSIGIVLQHEWFEPMSNSTADKLASERARAFNFNWFLDPIIFGKYPTEMENVLGSLLPKFSSYEKEKLKRGLDFIGVNYYTAFYVQDCMYSACKPGPGISRTEGSYKKSGEKNGVPIGEPTPFSWFNIYPDGMEKTVTYVRDRYNNTPIFLTENGYAEEVDPNFTSEEHLNDFKRIKYMVDHIEALLAAIRKGADVRGYFAWTLIDSFEWIYGYTVRYGFHHVDYATLKRTPRLSASWYKQLLVQYKKTFLLGTSMTGHEKLVQHT
notes: N-terminal 24-residue signal peptide removed (SSBG1Δ24); MBP fusion from pMAL-c2x, E. coli BL21(DE3), amylose resin; tag removal not mentioned
[1]
  Km: 46.51 µM
  kcat: 0.0040 s⁻¹
[2]
  Km: 165.90 µM
  kcat: 0.0072 s⁻¹
[3]
  Km: 28.88 µM
  kcat: 0.0018 s⁻¹
